Results: patent US20150299255A1

Target: lectin SNA1 from Sambucus nigra (Sambucus nigra), Q41358
Assay: solid-phase assay, peptide titrated into wells containing bound lectin (FIG. 7)

Sequence of lectin SNA1 from Sambucus nigra (Sambucus nigra), Q41358 (Q41358 29-289 limits assumed, chain 1 of 2): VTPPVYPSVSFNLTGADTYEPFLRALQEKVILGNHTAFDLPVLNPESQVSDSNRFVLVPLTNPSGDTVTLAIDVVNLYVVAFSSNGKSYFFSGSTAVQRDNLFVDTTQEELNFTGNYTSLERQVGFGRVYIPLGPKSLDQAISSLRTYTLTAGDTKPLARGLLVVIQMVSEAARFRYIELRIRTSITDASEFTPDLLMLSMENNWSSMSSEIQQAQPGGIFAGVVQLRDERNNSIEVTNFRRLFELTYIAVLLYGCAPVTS
Sequence of lectin SNA1 from Sambucus nigra (Sambucus nigra), Q41358 (Q41358 309-570 limits assumed, chain 2 of 2): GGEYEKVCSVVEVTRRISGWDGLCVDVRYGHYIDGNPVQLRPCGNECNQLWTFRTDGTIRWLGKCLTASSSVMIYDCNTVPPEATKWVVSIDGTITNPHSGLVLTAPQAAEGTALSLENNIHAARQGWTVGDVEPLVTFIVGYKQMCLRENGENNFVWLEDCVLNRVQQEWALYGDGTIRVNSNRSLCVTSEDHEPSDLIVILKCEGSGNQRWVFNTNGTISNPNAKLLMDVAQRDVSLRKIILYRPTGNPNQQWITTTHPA

B1: biotinylated quadravalent SVH1C (peptide)
peptide: NPSHPLSGGGGS
chain: KKKK
modifications: not checked
**Q.** How did the amount of peptide at half-maximal binding (pmoles peptide per well) turn out when B1 was run?
**A.** 25
